Data reported in paper PMC5494207.

How the values were obtained:
[1] = biological target: FliG 117C/166C protein (E. coli) (UniProt P0ABZ1); assay: cross-linking
[2] = biological target: FliG 158C/214C mutant (E. coli) (UniProt P0ABZ1); assay: cross-linking

Substance	stoichiometry N [1] [subunits]	stoichiometry N [2] [subunits]
FliG 117C/166C protein (from UniProt P0ABZ1 1-331) (natural protein)	8	–
FliG 158C/214C mutant (from UniProt P0ABZ1 1-331) (natural protein)	–	> 9
